Experimental data published in PMC12230644, “A Bacteriophage‐Derived Primase‐Helicase Orchestrates Plant Organellar DNA Replication” (Physiologia Plantarum, 2025).
Where “and” joins values, the source holds several entries; their conditions need not be identical. Equal entries are not always repeated.

T1: AtPolIA (Arabidopsis thaliana, UniProt F4I6M1 92-1050)
T1 sequence: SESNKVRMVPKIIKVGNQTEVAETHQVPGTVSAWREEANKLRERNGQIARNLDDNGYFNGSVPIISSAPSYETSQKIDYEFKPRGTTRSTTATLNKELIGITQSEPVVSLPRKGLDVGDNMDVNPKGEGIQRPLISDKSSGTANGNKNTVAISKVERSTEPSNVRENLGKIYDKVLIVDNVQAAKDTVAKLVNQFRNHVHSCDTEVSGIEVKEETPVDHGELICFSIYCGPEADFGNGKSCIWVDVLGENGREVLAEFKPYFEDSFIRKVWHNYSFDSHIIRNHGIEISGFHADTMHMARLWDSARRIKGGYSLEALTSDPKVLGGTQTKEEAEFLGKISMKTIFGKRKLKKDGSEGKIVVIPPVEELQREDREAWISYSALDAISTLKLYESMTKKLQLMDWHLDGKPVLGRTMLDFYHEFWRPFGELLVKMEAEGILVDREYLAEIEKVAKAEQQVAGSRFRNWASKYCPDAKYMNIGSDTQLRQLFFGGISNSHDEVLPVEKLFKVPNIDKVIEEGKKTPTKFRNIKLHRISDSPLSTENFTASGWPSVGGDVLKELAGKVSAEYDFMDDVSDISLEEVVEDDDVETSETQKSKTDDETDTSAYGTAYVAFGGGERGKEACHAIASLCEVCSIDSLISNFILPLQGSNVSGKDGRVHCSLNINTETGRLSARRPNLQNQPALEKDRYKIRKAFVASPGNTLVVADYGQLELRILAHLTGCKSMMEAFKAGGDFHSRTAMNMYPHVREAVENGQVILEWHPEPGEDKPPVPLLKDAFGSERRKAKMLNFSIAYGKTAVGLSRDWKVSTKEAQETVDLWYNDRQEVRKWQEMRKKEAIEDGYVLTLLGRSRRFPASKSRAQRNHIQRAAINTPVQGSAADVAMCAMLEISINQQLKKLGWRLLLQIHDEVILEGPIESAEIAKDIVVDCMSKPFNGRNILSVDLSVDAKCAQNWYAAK

T2: AtTwinkle (Arabidopsis thaliana, UniProt B5X582 92-709)
T2 sequence: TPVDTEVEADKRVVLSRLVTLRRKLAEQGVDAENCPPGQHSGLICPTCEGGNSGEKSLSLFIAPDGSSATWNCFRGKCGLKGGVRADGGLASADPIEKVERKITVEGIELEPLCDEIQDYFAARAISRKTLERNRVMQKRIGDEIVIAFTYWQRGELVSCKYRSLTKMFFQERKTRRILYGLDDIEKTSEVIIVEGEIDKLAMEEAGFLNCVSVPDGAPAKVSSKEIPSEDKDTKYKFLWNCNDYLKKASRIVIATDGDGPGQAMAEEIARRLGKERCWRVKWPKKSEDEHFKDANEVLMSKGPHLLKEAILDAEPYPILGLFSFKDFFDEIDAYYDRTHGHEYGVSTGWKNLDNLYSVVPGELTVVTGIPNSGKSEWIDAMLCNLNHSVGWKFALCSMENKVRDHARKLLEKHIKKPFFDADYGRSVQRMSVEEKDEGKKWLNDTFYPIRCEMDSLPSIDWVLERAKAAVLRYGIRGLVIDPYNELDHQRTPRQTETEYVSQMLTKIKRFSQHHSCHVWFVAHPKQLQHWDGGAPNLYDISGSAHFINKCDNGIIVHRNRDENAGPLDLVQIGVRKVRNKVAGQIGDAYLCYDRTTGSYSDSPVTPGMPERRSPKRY

B1: AtTwinkle (bacteriophage‐related primase‐helicase from Arabidopsis thaliana), processed form (enzyme, UniProt B5X582 92-709, looked up)
chain: T2 sequence
notes: codon-optimised gene; The results call this construct 'full-length'; the methods give residues 92-709; The oligomer size is told differently in text (nonamer and a larger complex) and legend (hexamer), so copies is left empty; The methods name pET19b for cloning and pCRI1b-AtTwinkle for mutagenesis; also called plant Twinkle; full‐length AtTwinkle; source: E. coli BL21(DE3) with pKJ7 chaperones, …
B2: AtHelicase (helicase domain of AtTwinkle) (domain or fragment, Arabidopsis thaliana, UniProt B5X582 402-709, looked up)
chain: ILDAEPYPILGLFSFKDFFDEIDAYYDRTHGHEYGVSTGWKNLDNLYSVVPGELTVVTGIPNSGKSEWIDAMLCNLNHSVGWKFALCSMENKVRDHARKLLEKHIKKPFFDADYGRSVQRMSVEEKDEGKKWLNDTFYPIRCEMDSLPSIDWVLERAKAAVLRYGIRGLVIDPYNELDHQRTPRQTETEYVSQMLTKIKRFSQHHSCHVWFVAHPKQLQHWDGGAPNLYDISGSAHFINKCDNGIIVHRNRDENAGPLDLVQIGVRKVRNKVAGQIGDAYLCYDRTTGSYSDSPVTPGMPERRSPKRY
notes: AtTwinkle, Arabidopsis thaliana, AT1G30680, helicase domain, residues 402-709; Modified pET28-SUMO vector; also called helicase module of AtTwinkle; wild‐type AtHelicase; source: E. coli BL21(DE3) with pKJ7 chaperones, purified (Ni‐NTA, heparin, Superdex 200)
B3: replication fork OligoJ+OligoK+OligoL (mixed)
DNA 1: AGCTATGACCATGATTAC
DNA 2: AGCTACCATGCCTGCACGAATTAAGCAATTCGTAATCATGGTCATAGCT
DNA 3: CAACTGCTCCGATGCCTTACCGTGCTTAATTCGTGCAGGCATGGTAGCT
B4: AtHelicaseΔ10 (AtHelicase lacking the last 10 amino acids) (domain or fragment)
chain: ILDAEPYPILGLFSFKDFFDEIDAYYDRTHGHEYGVSTGWKNLDNLYSVVPGELTVVTGIPNSGKSEWIDAMLCNLNHSVGWKFALCSMENKVRDHARKLLEKHIKKPFFDADYGRSVQRMSVEEKDEGKKWLNDTFYPIRCEMDSLPSIDWVLERAKAAVLRYGIRGLVIDPYNELDHQRTPRQTETEYVSQMLTKIKRFSQHHSCHVWFVAHPKQLQHWDGGAPNLYDISGSAHFINKCDNGIIVHRNRDENAGPLDLVQIGVRKVRNKVAGQIGDAYLCYDRTTGSYSDSPVTPG

Legend:
[1] = target: the molecule itself; assay: SEC; Superdex 200 gel filtration column calibrated with thyroglobulin, γ‐globulin, ovalbumin and myoglobin; in the absence of metal ions and nucleotides; size of the oligomer from the apparent mass
[2] = target: AtPolIB (Arabidopsis thaliana organellar DNA polymerase IB) (Arabidopsis thaliana); assay: MST; fluorescently labelled AtPolIB (His‐tag labelling kit) at constant concentration, AtHelicase or AtHelicase‐Δ10 titrated; PBS with 0.05% Tween‐20; NanoTemper Monolith NT.115p; no DNA
AtPolIA = target: T1, AtPolIA; assay: EMSA; no AtTwinkle; EMSA on 8% polyacrylamide gel; binding buffer, pH and temperature not given in the material (helicase assays: 20 mM Bis-Tris-Propane pH 7.5, 10 mM MgCl2, 10 mM); conditions: protein: recombinant; tags: Cy5-labeled; label: OligoJ 5'-Cy2; fork, strands 1:2 (18 bp) and 2:3 (27 bp); 4 nt gap on template; 22 nt 5' ssDNA tail on strand 3
AtTwinkle = target: T2, AtTwinkle; assay: EMSA; no polymerase; EMSA on 8% polyacrylamide gel; binding buffer, pH and temperature not given in the material (helicase assays: 20 mM Bis-Tris-Propane pH 7.5, 10 mM MgCl2, 10 mM); conditions: protein: recombinant; tags: His tag (pET19b; mutagenesis section names pCRI1b-AtTwinkle); chain copies: 6; label: OligoJ 5'-Cy2; fork, strands 1:2 (18 bp) and 2:3 (27 bp); 4 nt gap on template; 22 nt 5' ssDNA tail on strand 3
AtTwinkle;AtPolIA = AtTwinkle;AtPolIA (Arabidopsis thaliana;Arabidopsis …, UniProt B5X582;F4I6M1 92-709;92-1050, |); assay: EMSA; constant AtPolIA, high AtTwinkle; Cy2/Cy5 (orange) band at gel top, AtPolIA-DNA band disappears; EMSA on 8% polyacrylamide gel; binding buffer, pH and temperature not given in the material (helicase assays: 20 mM Bis-Tris-Propane pH 7.5, 10 mM MgCl2, 10 mM); conditions: protein: recombinant;recombinant; tags: His tag (pET19b; mutagenesis section names pCRI1b-AtTwinkle);Cy5-labeled; label: OligoJ 5'-Cy2; fork, strands 1:2 (18 bp) and 2:3 (27 bp); 4 nt gap on template; 22 nt 5' ssDNA tail on strand 3

Binder | stoichiometry N [1] | Kd [2] | binding result (AtPolIA) | binding result (AtTwinkle) | binding result (AtTwinkle;AtPolIA)
B1 | 9 and 6 |  |  |  | 
B2 | 6 | 210 nM |  |  | 
B3 |  |  | binds | binds | binds
B4 |  | 3640 nM |  |  | 
